Results: patent US5981720
Each block holds one binder with its values, some of them ahead of it. No end group written: not given here. *: point of attachment. βGlcNAc = CC(=O)N[C@@H]1[C@@H](O)[C@H](O)[C@@H](CO)O[C@H]1*

Key:
[1] = biological target: yeast alpha-glucosidase (yeast)
[2] = biological target: yeast alpha-glucosidase (yeast); remark: listed apart in the source
[3] = biological target: yeast alpha-glucosidase (yeast); remark: listed apart in the source
[4] = biological target: yeast alpha-glucosidase (yeast); details: scale: decrease of umole of glucose production from maltose per microgram of protein per hour

B1: PNGase treated CON-1 (protein)
chain: SPPGKPQGPPPQGGNQPQGPPPPPGKPQGPPPQGGNKPQGPPPPGKPQGPPPQGDNKSQSARSPPGKPQGPPPQGGNQPQGPPPPPGKPQGPPPQGGNKSQGPPPPGKPQGPPPQGGSKSRSSR
modifications: carbohydrate moiety removed with PNGase
- alpha-glucosidase inhibition assay [3]: 50 percent

B2: CON-1 (protein)
chain: B1 chain
modifications: glycoprotein; glycosylation occurs at one N-linked site (acetylglucosamine on asparagine of glycine-glycine-asparagine-lysine)
- Specific Inhibitory Activity [4]: 2810

Binder: GGNK (acetylglucosamine cleaved off the asparagine with N-acetylglucosaminidase) [glycopeptide treated with N-acetylglucosaminidase]
- inhibitory effect on alpha-glucosidase activity (% of inhibition lost) [2]: 20

Second part, the binder after the results:

- inhibitory effect on alpha-glucosidase activity [1]: 90%
Binder: GGN(βGlcNAc)K [synthetic glycopeptide Gylcyl-glycl-(NB-2-(acetylamino)-deoxy-2-B-pyranosyl)-asparaginyl-lysine]

- inhibitory effect on alpha-glucosidase activity (% increase in inhibitory effect) [2]: 50
Binder: GGN(βGlcNAc)K(pyridoxal 5‑phosphate) [pyridoxal 5-phosphate modified glycopeptide]
